The record followed here is US20050054026A1.

The experiment has as its target 9-fluorenylmethyloxycarbonyl (Fmoc)-glycyl-prolyl-glutamyl-glycyl-isoleucyl-alanyl-glycyl-tryptophanyl-glycine (Gly-Pro-Gln-Gly-Ile-Ala-Gly-Trp-Gly) (Artificial Sequence). The conditions noted are these: scale: fold.
aminopeptidase-1 (enzyme) came in with a degradation rate of Fmoc-… per unit weight of enzyme and unit time (first 15 minutes, RP-HPLC) of 14.2.

carboxypeptidase A (enzyme) yielded a degradation rate of Fmoc-… per unit weight of enzyme and unit time (first 15 minutes, RP-HPLC) of 38.8.

The substance collagenase (enzyme) gave a degradation rate of Fmoc-… per unit weight of enzyme and unit time (first 15 minutes, RP-HPLC) of 26.9.
